Source: the supplement of paper PMC5998384

Key:
HeLa Kyoto [1] = assay: thermal stability score vs G1/S (z-score of summed log2 fold changes over temperatures); higher = more thermally stable than in G1/S
HeLa Kyoto [2] = assay: melting temperature (median over replicates), in situ; higher = more thermally stable
[3] = cell cycle stage: early G1 (4.5 h after nocodazole release)
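Throughout, for melting temperature (median over replicates), in situ: HeLa Kyoto cells synchronized by double thymidine or nocodazole block, proteins quantified by TMT10plex mass spectrometry, three independent biological replicates.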
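Throughout, for thermal stability score vs G1/S (z-score of summed log2 fold changes over temperatures): synchronized HeLa Kyoto cells, proteins quantified by TMT10plex mass spectrometry, three biological replicates, mitosis taken 0.5 h after nocodazole release, G1/S directly after double thymidine block.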

HRNR
thermal stability score (HeLa Kyoto [1]; [3]): 5.84 | thermal stability score (HeLa Kyoto [1]; cell cycle stage: mitosis): 1.12

KIAA0100
thermal stability score (HeLa Kyoto [1]; [3]): 1.31 | thermal stability score (HeLa Kyoto [1]; cell cycle stage: mitosis): 1.36

MAAAVAAALARLLAAFLLLAAQVACEYGMVHVVSQAGGPEGKDYCILYNPQWAHLPHDLSKASFLQLRNWTASLLCSAADLPARGFSNQIPLVARGNCTFYEKVRLAQGSGARGLLIVSRERLVPPGGNKTQYDEIGIPVALLSYKDMLDIFTRFGRTVRAALYAPKEPVLDYNMVIIFIMAVGTVAIGGYWAGSRDVKKRYMKHKRDDGPEKQEDEAVDVTPVMTCVFVVMCCSMLVLLYYFYDLLVYVVIGIFCLASATGLYSCLAPCVRRLPFGKCRIPNNSLPYFHKRPQARMLLLALFCVAVSVVWGVFRNEDQWAWVLQDALGIAFCLYMLKTIRLPTFKACTLLLLVLFLYDIFFVFITPFLTKSGSSIMVEVATGPSDSATREKLPMVLKVPRLNSSPLALCDRPFSLLGFGDILVPGLLVAYCHRFDIQVQSSRVYFVACTIAYGVGLLVTFVALALMQRGQPALLYLVPCTLVTSCAVALWRRELGVFWTGSGFAKVLPPSPWAPAPADGPQPPKDSATPLSPQPPSEEPATSPWPAEQSPKSRTSEEMGAGAPMREPGSPAESEGRDQAQPSPVTQPGASA [SPPL2B]
thermal stability score (HeLa Kyoto [1]; [3]): 0.962 | thermal stability score (HeLa Kyoto [1]; cell cycle stage: mitosis): -2.37

MAAQGEPGYLAAQSDPGSNSERSTDSPVPGSEDDLVAGATLHSPEWSEERFRVDRKKLEAMLQAAAEGKGRSGEDFFQKIMEETNTQIAWPSKLKIGAKSKKDPHIKVSGKKEDVKEAKEMIMSVLDTKSNRVTLKMDVSHTEHSHVIGKGGNNIKKVMEETGCHIHFPDSNRNNQAEKSNQVSIAGQPAGVESARVRIRELLPLVLMFELPIAGILQPVPDPNSPSIQHISQTYNISVSFKQRSRMYGATVIVRGSQNNTSAVKEGTAMLLEHLAGSLASAIPVSTQLDIAAQHHLFMMGRNGSNIKHIMQRTGAQIHFPDPSNPQKKSTVYLQGTIESVCLARQYLMGCLPLVLMFDMKEEIEVDPQFIAQLMEQLDVFISIKPKPKQPSKSVIVKSVERNALNMYEARKCLLGLESSGVTIATSPSPASCPAGLACPSLDILASAGLGLTGLGLLGPTTLSLNTSTTPNSLLNALNSSVSPLQSPSSGTPSPTLWAPPLANTSSATGFSAIPHLMIPSTAQATLTNILLSGVPTYGHTAPSPPPGLTPVDVHINSMQTEGKKISAALNGHAQSPDIKYGAISTSSLGEKVLSANHGDPSIQTSGSEQTSPKSSPTEGCNDAFVEVGMPRSPSHSGNAGDLKQMMCPSKVSCAKRQTVELLQGTKNSHLHSTDRLLSDPELSATESPLADKKAPGSERAAERAAAAQQNSERAHLAPRSSYVNMQAFDYEQKKLLATKAMLKKPVVTEVRTPTNTWSGLGFSKSMPAETIKELRRANHVSYKPTMTTTYEGSSMSLSRSNSREHLGGGSESDNWRDRNGIGPGSHSEFAASIGSPKRKQNKSTEHYLSSSNYMDCISSLTGSNGCNLNSSFKGSDLPELFSKLGLGKYTDVFQQQEIDLQTFLTLTDQDLKELGITTFGARRKMLLAISELNKNRRKLFESPNARTSFLEGGASGRLPRQYHSDIASVSGRW [BICC1]
thermal stability score (HeLa Kyoto [1]; [3]): -0.0285 | thermal stability score (HeLa Kyoto [1]; cell cycle stage: mitosis): 0.296

MALCEAAGCGSALLWPRLLLFGDSITQFSFQQGGWGASLADRLVRKCDVLNRGFSGYNTRWAKIILPRLIRKGNSLDIPVAVTIFFGANDSALKDENPKQHIPLEEYAANLKSMVQYLKSVDIPENRVILITPTPLCETAWEEQCIIQGCKLNRLNSVVGEYANACLQVAQDCGTDVLDLWTLMQDSQDFSSYLSDGLHLSPKGNEFLFSHLWPLIEKKVSSLPLLLPYWRDVAEAKPELSLLGDGDH [IAH1]
thermal stability score (HeLa Kyoto [1]; [3]): 0.993 | thermal stability score (HeLa Kyoto [1]; cell cycle stage: mitosis): -0.17

MPGPSPGLRRALLGLWAALGLGLFGLSAVSQEPFWADLQPRVAFVERGGSLWLNCSTNCPRPERGGLETSLRRNGTQRGLRWLARQLVDIREPETQPVCFFRCARRTLQARGLIRTFQRPDRVELMPLPPWQPVGENFTLSCRVPGAGPRASLTLTLLRGAQELIRRSFAGEPPRARGAVLTATVLARREDHGANFSCRAELDLRPHGLGLFENSSAPRELRTFSLSPDAPRLAAPRLLEVGSERPVSCTLDGLFPASEARVYLALGDQNLSPDVTLEGDAFVATATATASAEQEGARQLVCNVTLGGENRETRENVTIYSFPAPLLTLSEPSVSEGQMVTVTCAAGAQALVTLEGVPAAVPGQPAQLQLNATENDDRRSFFCDATLDVDGETLIKNRSAELRVLYAPRLDDSDCPRSWTWPEGPEQTLRCEARGNPEPSVHCARSDGGAVLALGLLGPVTRALSGTYRCKAANDQGEAVKDVTLTVEYAPALDSVGCPERITWLEGTEASLSCVAHGVPPPDVICVRSGELGAVIEGLLRVAREHAGTYRCEATNPRGSAAKNVAVTVEYGPRFEEPSCPSNWTWVEGSGRLFSCEVDGKPQPSVKCVGSGGATEGVLLPLAPPDPSPRAPRIPRVLAPGIYVCNATNRHGSVAKTVVVSAESPPEMDESTCPSHQTWLEGAEASALACAARGRPSPGVRCSREGIPWPEQQRVSREDAGTYHCVATNAHGTDSRTVTVGVEYRPVVAELAASPPGGVRPGGNFTLTCRAEAWPPAQISWRAPPGALNIGLSSNNSTLSVAGAMGSHGGEYECAATNAHGRHARRITVRVAGPWLWVAVGGAAGGAALLAAGAGLAFYVQSTACKKGEYNVQEAESSGEAVCLNGAGGGAGGAAGAEGGPEAAGGAAESPAEGEVFAIQLTSA [ICAM5]
melting temperature (HeLa Kyoto [2]; cell cycle stage: G1/S): 54.5 °C

MPSETPQAEVGPTGCPHRSGPHSAKGSLEKGSPEDKEAKEPLWIRPDAPSRCTWQLGRPASESPHHHTAPAKSPKILPDILKKIGDTPMVRINKIGKKFGLKCELLAKCEFFNAGGSVKDRISLRMIEDAERDGTLKPGDTIIEPTSGNTGIGLALAAAVRGYRCIIVMPEKMSSEKVDVLRALGAEIVRTPTNARFDSPESHVGVAWRLKNEIPNSHILDQYRNASNPLAHYDTTADEILQQCDGKLDMLVASVGTGGTITGIARKLKEKCPGCRIIGVDPEGSILAEPEELNQTEQTTYEVEGIGYDFIPTVLDRTVVDKWFKSNDEEAFTFARMLIAQEGLLCGGSAGSTVAVAVKAAQELQEGQRCVVILPDSVRNYMTKFLSDRWMLQKGFLKEEDLTEKKPWWWHLRVQELGLSAPLTVLPTITCGHTIEILREKGFDQAPVVDEAGVILGMVTLGNMLSSLLAGKVQPSDQVGKVIYKQFKQIRLTDTLGRLSHILEMDHFALVVHEQIQYHSTGKSSQRQMVFGVVTAIDLLNFVAAQERDQK [CBS]
melting temperature (HeLa Kyoto [2]; cell cycle stage: G1/S): 55 °C | melting temperature (HeLa Kyoto [2]; cell cycle stage: mitosis): 55.8 °C

MQSREDAPRSRRLASPRGGKRPKKIHKPTVSAFFTGPEELKDTAHSAALLAQLKSFYDARLLCDVTIEVVTPGSGPGTGRLFPCNRNVLAAACPYFKSMFTGGMYESQQASVTMHDVDAESFEVLVDYCYTGRVSLSEANVERLYAASDMLQLEYVREACASFLARRLDLTNCTAILKFADAFGHRKLRSQAQSYIAQNFKQLSHMGSIREETLADLTLAQLLAVLRLDSLDVESEQTVCHVAVQWLEAAPKERGPSAAEVFKCVRWMHFTEEDQDYLEGLLTKPIVKKYCLDVIEGALQMRYGDLLYKSLVPVPNSSSSSSSSNSLVSAAENPPQRLGMCAKEMVIFFGHPRDPFLCCDPYSGDLYKVPSPLTCLAHTRTVTTLAVCISPDHDIYLAAQPRTDLWVYKPAQNSWQQLADRLLCREGMDVAYLNGYIYILGGRDPITGVKLKEVECYNVKRNQWALVAPLPHSFLSFDLMVIRDYLYALNSKRMFCYDPSHNMWLKCVSLKRNDFQEACVFNEEIYCICDIPVMKVYNPVRAEWRQMNNIPLVSETNNYRIIKHGQKLLLITSRTPQWKKNRVTVYEYDIRGDQWINIGTTLGLLQFDSNFFCLSARVYPSCLEPGQSFLTEEEEIPSESSTEWDLGGFSEPDSESGSSSSLSDDDFWVRVAPQ [KBTBD6]
melting temperature (HeLa Kyoto [2]; cell cycle stage: G1/S): 50.6 °C | melting temperature (HeLa Kyoto [2]; cell cycle stage: mitosis): 51.1 °C

MSAARESHPHGVKRSASPDDDLGSSNWEAADLGNEERKQKFLRLMGAGKKEHTGRLVIGDHKSTSHFRTGEEDKKINEELESQYQQSMDSKLSGRYRRHCGLGFSEVEDHDGEGDVAGDDDDDDDDSPDPESPDDSESDSESEKEESAEELQAAEHPDEVEDPKNKKDAKSNYKMMFVKSSGS [C11ORF58]
melting temperature (HeLa Kyoto [2]; cell cycle stage: G1/S): 55 °C

MSKAHPPELKKFTDKKFSLKLNGGRHVQGILRGFDPFMNLVIDECVEMATSGQQKNIGMVEIRGNSIIMLEALERV [SNRPGP15]
melting temperature (HeLa Kyoto [2]; cell cycle stage: G1/S): 53.6 °C | melting temperature (HeLa Kyoto [2]; cell cycle stage: mitosis): 54 °C

MSSSSSSPRETYEEDREYESQAKRLKTEEGEIDYSAEEGENRREATPRGGGDGGGGGRSFSQPEAGGSHHKVSVSPVVHVRGLCESVVEADLVEALEKFGTICYVMMMPFKRQALVEFENIDSAKECVTFAADEPVYIAGQQAFFNYSTSKRITRPGNTDDPSGGNKVLLLSIQNPLYPITVDVLYTVCNPVGKVQRIVIFKRNGIQAMVEFESVLCAQKAKAALNGADIYAGCCTLKIEYARPTRLNVIRNDNDSWDYTKPYLGRRDRGKGRQRQAILGEHPSSFRHDGYGSHGPLLPLPSRYRMGSRDTPELVAYPLPQASSSYMHGGNPSGSVVMVSGLHQLKMNCSRVFNLFCLYGNIEKVKFMKTIPGTALVEMGDEYAVERAVTHLNNVKLFGKRLNVCVSKQHSVVPSQIFELEDGTSSYKDFAMSKNNRFTSAGQASKNIIQPPSCVLHYYNVPLCVTEETFTKLCNDHEVLTFIKYKVFDAKPSAKTLSGLLEWECKTDAVEALTALNHYQIRVPNGSNPYTLKLCFSTSSHL [HNRNPLL]
melting temperature (HeLa Kyoto [2]; cell cycle stage: G1/S): 47.6 °C | melting temperature (HeLa Kyoto [2]; cell cycle stage: mitosis): 49.7 °C

MTQSVVVQVGQCGNQIGCCFWDLALREHAAVNQKGIYDEAISSFFRNVDTRVVGDGGSISKGKICSLKARAVLIDMEEGVVNEILQGPLRDVFDTKQLITDISGSGNNWAVGHKVFGSLYQDQILEKFRKSAEHCDCLQCFFIIHSMGGGTGSGLGTFLLKVLEDEFPEVYRFVTSIYPSGEDDVITSPYNSILAMKELNEHADCVLPIDNQSLFDIISKIDLMVNSGKLGTTVKPKSLVTSSSGALKKQHKKPFDAMNNIVANLLLNLTSSARFEGSLNMDLNEISMNLVPFPQLHYLVSSLTPLYTLTDVNIPPRRLDQMFSDAFSKDHQLLRADPKHSLYLACALMVRGNVQISDLRRNIERLKPSLQFVSWNQEGWKTSLCSVPPVGHSHSLLALANNTCVKPTFMELKERFMRLYKKKAHLHHYLQVEGMEESCFTEAVSSLSALIQEYDQLDATKNMPVQDLPRLSIAM [TUBE1]
melting temperature (HeLa Kyoto [2]; cell cycle stage: mitosis): 55.1 °C

PLXNA2
melting temperature (HeLa Kyoto [2]; cell cycle stage: G1/S): 54.1 °C | melting temperature (HeLa Kyoto [2]; cell cycle stage: mitosis): 54.4 °C
